Data published in publication PMC8960874 (2022).

Tests used:
[1] = target: T1, SARS-CoV-2 spike receptor binding domain (RBD) protein with a C-terminal hexahistidine tag (SARS-CoV-2, UniProt P0DTC2 319-541); assay: BLI
[2] = target: T1, SARS-CoV-2 spike receptor binding …; assay: BLI; remark: listed apart in the source

Row | Binder | Kd [1] [pM] | koff [2] [s⁻¹]
1 | Clone 6 mAb (human IgG1 with mouse variable regions) (antibody, V domains shown) VH: QVQLQQSAAELARPGASVKMSCKASGYTFTSYTMHWVKQRPGQGLEWIGYINPTSGYTEYNQNFKDKTTLTADKSSSTAYMQLNSLTSEDSAVYYCAREGHRVGPAYWGQGTLVTVSA VL: not shown | 1.89 | 3.65e-07
2 | Clone 2 mAb (human IgG1 with mouse variable regions) (antibody, V domains shown) VH: EVQLQQSGPELVKPGASVKISCKASGYSFTGYSMNWMKQSPEKSLEWIGEINPSTGGTTDNQKFKAKATLTVDKSSSTAYMQLKSLTSEDSAVYYCARSRGDYWGQGTSVTVSS VL: DIVLTQSPASLAVSLGQRATISCRASESVEYYGTSLMQWYQQKPGQPPKVLIYAASNVESGVPARFSGSGSGTDFSLNIHPVEEDDIAMYFCQQSRKVPWTFGGGTKLEIK | 1.58 | 1.49e-07
